Reference: paper PMC10057511

Biological target: AP2α/σ2 hemicomplex, both subunits fused to the Venus C-terminal fragment and V5 (UniProt O94973)
Assay: split reporter (BiFC, NanoBiT); HEK293 cells co-transfected with AP2α-Venus-C-V5, AP2σ2-Venus-C-V5 and Nef-HA-Venus-N (400 ng each); fixed the next day in 2% PFA; Venus fluorescence (FITC channel) read by flow cytometry as MFI

Chain of UniProt O94973 (O94973 whole entry, chain 1 of 2, the tested form may be a part): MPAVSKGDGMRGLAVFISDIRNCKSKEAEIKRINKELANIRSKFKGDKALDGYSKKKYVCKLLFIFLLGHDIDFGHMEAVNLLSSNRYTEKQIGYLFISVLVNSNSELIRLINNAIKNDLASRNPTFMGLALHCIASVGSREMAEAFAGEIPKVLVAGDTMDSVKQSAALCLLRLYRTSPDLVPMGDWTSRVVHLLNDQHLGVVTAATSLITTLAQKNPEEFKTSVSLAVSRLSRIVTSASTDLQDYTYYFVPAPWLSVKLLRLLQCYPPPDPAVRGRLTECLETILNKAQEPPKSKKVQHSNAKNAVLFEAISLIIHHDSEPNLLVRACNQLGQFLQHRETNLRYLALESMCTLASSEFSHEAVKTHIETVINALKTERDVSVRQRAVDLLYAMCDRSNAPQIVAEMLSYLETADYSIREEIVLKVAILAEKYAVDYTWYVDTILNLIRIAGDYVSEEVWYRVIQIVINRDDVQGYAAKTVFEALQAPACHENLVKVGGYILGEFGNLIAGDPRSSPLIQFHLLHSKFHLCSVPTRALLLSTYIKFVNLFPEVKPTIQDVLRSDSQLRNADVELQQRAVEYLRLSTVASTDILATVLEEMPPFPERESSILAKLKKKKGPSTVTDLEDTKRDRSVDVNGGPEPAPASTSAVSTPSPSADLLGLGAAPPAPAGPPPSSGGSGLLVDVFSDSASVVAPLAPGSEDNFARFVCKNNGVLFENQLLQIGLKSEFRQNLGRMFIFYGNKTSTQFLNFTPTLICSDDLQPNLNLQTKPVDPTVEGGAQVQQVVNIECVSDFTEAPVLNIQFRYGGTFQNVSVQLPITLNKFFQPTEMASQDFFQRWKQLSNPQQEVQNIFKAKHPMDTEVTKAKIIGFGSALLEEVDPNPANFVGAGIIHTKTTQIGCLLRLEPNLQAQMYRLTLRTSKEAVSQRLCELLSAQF
Chain of UniProt O94973 (P53680 whole entry, chain 2 of 2, further chain, the tested form may be a part): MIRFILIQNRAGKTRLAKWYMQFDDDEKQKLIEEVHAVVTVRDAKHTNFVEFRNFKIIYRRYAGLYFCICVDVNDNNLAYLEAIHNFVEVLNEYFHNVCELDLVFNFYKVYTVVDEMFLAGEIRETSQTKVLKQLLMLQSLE

Nef protein from the LAI isolate lacking the leucine-based sorting motif (LL/AA) fused to HA and the N-terminal fragment of Venus (from UniProt P03406 1-206) (natural protein)
decrease of BiFC fluorescence against Nef^LAI: 50%
